Patent US20210324080A1
Each block holds one substance with its values, some of them ahead of it.

Tests used:
[1] = target: human CTLA-4 (Y201V), full length, on transfected cells (human) (UniProt P16410); experiment: FACS, human CTLA-4 expressing cells
[2] = target: human CTLA-4 (Y201V), full length, on transfected cells (human) (UniProt P16410); experiment: FACS, CHOK1-hCTLA-4 cells
[3] = target: monkey CTLA-4, full length, on transfected HEK293 cells (monkey); experiment: FACS, monkey CTLA-4 expressing cells
[4] = target: CTLA-4-hFc (immunogen A; hFc-labeled CTLA-4 extracellular domain protein) (human) (UniProt P16410); experiment: blocking assay, CTLA-4 protein, competitor B7.1
[5] = target: CTLA-4-hFc (immunogen A; hFc-labeled CTLA-4 extracellular domain protein) (human) (UniProt P16410); experiment: blocking assay, CTLA-4 protein, competitor B7.2
[6] = target: monkey CTLA-4, full length, on transfected HEK293 cells (monkey); experiment: FACS, 293F-cCTLA-4 cells
[7] = target: CTLA-4-hFc (immunogen A; hFc-labeled CTLA-4 extracellular domain protein) (human) (UniProt P16410); experiment: ELISA, coated CTLA-4-hFc, competitor biotin-B7.1-hFc
[8] = target: CTLA-4-hFc (immunogen A; hFc-labeled CTLA-4 extracellular domain protein) (human) (UniProt P16410); experiment: ELISA, coated CTLA-4-hFc, competitor biotin-B7.2-hFc

Chain of human CTLA-4 (Y201V), full length, on transfected cells (human) (P16410 36-223 Y201V): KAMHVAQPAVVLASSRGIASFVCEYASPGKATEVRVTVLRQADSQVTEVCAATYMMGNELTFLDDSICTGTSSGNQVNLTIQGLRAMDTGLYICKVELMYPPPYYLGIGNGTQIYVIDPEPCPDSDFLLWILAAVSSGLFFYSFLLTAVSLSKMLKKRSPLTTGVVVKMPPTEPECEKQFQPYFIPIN
Chain of CTLA-4-hFc (immunogen A; hFc-labeled CTLA-4 extracellular domain protein) (human) (P16410 36-161 limits assumed): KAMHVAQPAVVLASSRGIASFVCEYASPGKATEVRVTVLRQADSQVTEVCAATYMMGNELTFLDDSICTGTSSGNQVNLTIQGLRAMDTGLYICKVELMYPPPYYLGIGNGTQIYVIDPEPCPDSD

- MFI at 0.000128 nM [1]: 3
- MFI at 0.0128 nM [1]: 3
- MFI at 0.064 nM [1]: 3
- MFI at 0.32 nM [1]: 3
- MFI at 1.6 nM [1]: 3
- MFI at 8 nM [1]: 3
- MFI at 40 nM [1]: 4
- MFI at 200 nM [1]: 6
- MFI at 0.07 nM [2]: 2
- MFI at 0.67 nM [2]: 2
- MFI at 6.67 nM [2]: 3
- MFI at 66.67 nM [2]: 8
- MFI at 0.000128 nM [3]: 3
- MFI at 0.0128 nM [3]: 3
- MFI at 0.064 nM [3]: 3
- MFI at 0.32 nM [3]: 2
- MFI at 1.6 nM [3]: 3
- MFI at 8 nM [3]: 3
- MFI at 40 nM [3]: 3
- MFI at 200 nM [3]: 5
Substance: IgG control (human IgG) (antibody)

- % Block at 0.000128 nM [4]: 0%
- % Block at 0.0128 nM [4]: -2%
- % Block at 0.064 nM [4]: 0.2%
- % Block at 1.6 nM [4]: 1.3%
- % Block at 8 nM [4]: -0.1%
- % Block at 40 nM [4]: 1.6%
- % Block at 200 nM [4]: -0.3%
- % Block at 0.000128 nM [5]: 0%
- % Block at 0.0128 nM [5]: 12.3%
- % Block at 0.064 nM [5]: 12.9%
- % Block at 0.32 nM [5]: 15.5%
- % Block at 1.6 nM [5]: 4.1%
- % Block at 8 nM [5]: 4.9%
- % Block at 40 nM [5]: 18.3%
- % Block at 200 nM [5]: 12.4%
- MFI at 0.000128 nM [6]: 2.7
- MFI at 0.0128 nM [6]: 2.6
- MFI at 0.064 nM [6]: 2.6
- MFI at 0.32 nM [6]: 2.4
- MFI at 1.6 nM [6]: 2.6
- MFI at 8 nM [6]: 2.9
- MFI at 40 nM [6]: 3.3
- MFI at 200 nM [6]: 4.9
Substance: hIgG1 (antibody)

- Inhibition rate (%) at 0.00091 nM [7]: 0%
- Inhibition rate (%) at 0.091 nM [7]: -36%
- Inhibition rate (%) at 0.274 nM [7]: -41%
- Inhibition rate (%) at 0.823 nM [7]: -37%
- Inhibition rate (%) at 2.5 nM [7]: -39%
- Inhibition rate (%) at 7.4 nM [7]: -40%
- Inhibition rate (%) at 22.2 nM [7]: -41%
- Inhibition rate (%) at 66.7 nM [7]: -10%
- Inhibition rate (%) at 0.00091 nM [8]: 0%
- Inhibition rate (%) at 0.091 nM [8]: -8%
- Inhibition rate (%) at 0.274 nM [8]: -10%
- Inhibition rate (%) at 0.823 nM [8]: -1%
- Inhibition rate (%) at 2.5 nM [8]: -7%
- Inhibition rate (%) at 7.4 nM [8]: -12%
- Inhibition rate (%) at 22.2 nM [8]: 10%
- Inhibition rate (%) at 66.7 nM [8]: 61%
Substance: hIgG4 (antibody)
